According to article PMC10878242 (Journal of Virology, 2024):

Assays:
Conditions in all cases: both partners purified
[1] = target: PCV2-Cap peptide aa 69–83 (Porcine circovirus 2, PCV2b strain SH); assay: ELISA; synthetic 15-mer peptides coated (1 µg/well); mAb-1E7 or mAb-3G4 added; detection with goat anti-mouse IgG
[2] = target: T1, recombinant PCV2 capsid protein (PCV2-Cap) (Porcine circovirus 2, strain of …, UniProt D6R1Z5); assay: Western blot
T1 construct: also called monomeric PCV2-Cap

[3] = target: PCV2-Cap peptide aa 74–88 (Porcine circovirus 2, PCV2b strain SH); assay: ELISA; synthetic 15-mer peptides coated (1 µg/well); mAb-1E7 or mAb-3G4 added; detection with goat anti-mouse IgG
[4] = target: PCV2-Cap peptide aa 73–87 (Porcine circovirus 2, PCV2b strain SH); assay: as above
[5] = target: PCV2-Cap peptide aa 75–89 (Porcine circovirus 2, PCV2b strain SH); assay: as above

Binder	binding result [1]	binding result [2]	binding result [3]	binding result [4]	binding result [5]
mAb-3G4 (antibody, V domains shown) VH: QVTLKESGPGILQPSQTLSLTCSFSGFSLSTSGMVVGWIRQPSGKGLEWLAHIWWDDVKRYNPALKSRLTISKDTSNSQVFLKIASVDTADTATYYCARSPFFAYWGQGTLVTISP VL: DIQMTQSPSSLSASLGERVSLTCRASQDIGSNLNWLQKRSDGSIKRLIYATSSLDSGVPKRFSGSRSGSDYSLTISSLESEDFVDYYCLQYATSPYTFGGGTKLEIK	binds	binds	–	–	–
mAb-1E7 (antibody, V domains shown) VH: QIQLVQSGPELKKPGETVKISCKASGYIFTNYGMNWVKQAPGKGFKWMGWINTYTGEPTYVDDFKGRFAFSLETSASTVYLQINNLKNEDTATYFCARSLENWGQGTTLTVSS VL: DIVMTQAAFSNPVTLGTSASISCRSSKSLLHSNGITYLYWYLQKPGQSPQLLIYQMSNLASGVPDRFSSSGSGTDFTLRISRVEAEDVGVYYCAQNVELPTFGGGTKLEIK	–	–	binds	binds	binds
